Read-outs that look alike come from different tables or passages of the source. No end group written: not given here.
T1: human CD80 (human, UniProt P33681 35-288)
T1 sequence (looked up): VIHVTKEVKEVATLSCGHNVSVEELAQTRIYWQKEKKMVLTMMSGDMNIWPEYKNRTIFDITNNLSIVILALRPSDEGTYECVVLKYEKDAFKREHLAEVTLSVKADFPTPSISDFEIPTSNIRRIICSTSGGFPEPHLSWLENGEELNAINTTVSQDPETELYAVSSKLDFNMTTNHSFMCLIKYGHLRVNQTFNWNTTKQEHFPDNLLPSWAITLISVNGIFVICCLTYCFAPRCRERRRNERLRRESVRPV

T2: human CD86 (human, UniProt P42081 24-329)
T2 sequence (looked up): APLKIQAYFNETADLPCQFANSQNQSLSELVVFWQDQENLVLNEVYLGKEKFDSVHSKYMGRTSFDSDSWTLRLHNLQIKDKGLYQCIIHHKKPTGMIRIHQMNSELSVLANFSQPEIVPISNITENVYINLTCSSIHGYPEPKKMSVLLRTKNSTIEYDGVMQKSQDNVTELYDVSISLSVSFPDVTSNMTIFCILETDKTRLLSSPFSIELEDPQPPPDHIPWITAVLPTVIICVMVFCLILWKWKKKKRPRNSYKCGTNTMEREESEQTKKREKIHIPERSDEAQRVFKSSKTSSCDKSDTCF

T3: human ICOSL (human, UniProt O75144 19-302)
T3 construct: whole, on cells
T3 sequence (looked up): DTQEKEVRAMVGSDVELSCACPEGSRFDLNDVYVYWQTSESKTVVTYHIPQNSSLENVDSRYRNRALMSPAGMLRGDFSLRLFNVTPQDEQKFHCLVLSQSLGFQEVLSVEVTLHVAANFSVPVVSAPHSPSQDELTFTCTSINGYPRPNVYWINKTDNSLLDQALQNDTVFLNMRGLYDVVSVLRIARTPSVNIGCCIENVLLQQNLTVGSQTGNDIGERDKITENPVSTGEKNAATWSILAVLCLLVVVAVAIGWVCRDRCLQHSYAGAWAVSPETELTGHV

T4: recombinant human APRIL (human, UniProt O75888 105-250, limits assumed)
T4 sequence (looked up): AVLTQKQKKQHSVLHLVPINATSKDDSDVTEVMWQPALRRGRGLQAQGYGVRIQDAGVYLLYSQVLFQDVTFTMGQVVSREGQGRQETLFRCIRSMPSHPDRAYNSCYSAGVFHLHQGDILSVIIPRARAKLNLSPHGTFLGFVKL

T5: recombinant human APRIL (human, UniProt O75888 105-250, limits assumed)
T5 construct: also called human APRIL (Tonbo Biosciences)
T5 sequence (looked up): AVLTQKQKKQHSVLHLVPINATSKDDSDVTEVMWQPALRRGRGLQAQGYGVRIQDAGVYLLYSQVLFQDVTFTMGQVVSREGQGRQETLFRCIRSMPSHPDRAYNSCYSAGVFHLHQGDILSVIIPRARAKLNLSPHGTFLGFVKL


Assays:
[1] = target: recombinant human APRIL (human) (UniProt O75888); assay: cell-based or functional assay; set-up: IC50 APRIL (Δ TACI 30-110-Fc) / IC50 BAFF (Δ TACI 30-110-Fc): unit not given beside the values
[2] = target: recombinant human BAFF (human) (UniProt Q9Y275); assay: cell-based or functional assay; set-up: IC50 APRIL (Δ TACI 30-110-Fc) / IC50 BAFF (Δ TACI 30-110-Fc): unit not given beside the values
[3] = target: recombinant human APRIL (human) (UniProt O75888); assay: cell-based or functional assay; set-up: IC50 APRIL (Δ Parental vTD) / IC50 BAFF (Δ Parental vTD): unit not given beside the values
[4] = target: recombinant human BAFF (human) (UniProt Q9Y275); assay: cell-based or functional assay; set-up: IC50 APRIL (Δ Parental vTD) / IC50 BAFF (Δ Parental vTD): unit not given beside the values
[5] = target: T1, human CD80; assay: cell-based or functional assay
[6] = target: T2, human CD86; assay: cell-based or functional assay
[7] = target: T3, human ICOSL; assay: flow cytometry, cells expressing human ICOSL
[8] = target: T4, recombinant human APRIL; assay: cell-based or functional assay
[9] = target: T6, recombinant human BAFF (human, UniProt Q9Y275 134-285); assay: cell-based or functional assay
[10] = target: T4, recombinant human APRIL; assay: cell-based or functional assay; remark: listed apart in the source
[11] = target: T6, recombinant human BAFF; assay: cell-based or functional assay; remark: listed apart in the source
[12] = target: T5, recombinant human APRIL; assay: told in the description with reference to Example 8 (Jurkat/NF-κB/TACI reporter blockade)
[13] = target: T7, recombinant human BAFF (human, UniProt Q9Y275 134-285); assay: as above
T7 construct: also called human BAFF (BioLegend)

Chain of TACI 30-110-Fc (Fc fusion) (chain): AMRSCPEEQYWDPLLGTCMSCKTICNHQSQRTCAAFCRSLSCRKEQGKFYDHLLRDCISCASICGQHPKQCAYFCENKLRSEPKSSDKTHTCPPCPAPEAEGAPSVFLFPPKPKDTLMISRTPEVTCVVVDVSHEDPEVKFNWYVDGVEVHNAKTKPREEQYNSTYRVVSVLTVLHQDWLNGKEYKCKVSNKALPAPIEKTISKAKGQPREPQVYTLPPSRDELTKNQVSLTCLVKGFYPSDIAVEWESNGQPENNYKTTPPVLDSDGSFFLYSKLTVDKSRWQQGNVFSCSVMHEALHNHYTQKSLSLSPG
Chain of BCMA WT-Fc (Fc fusion) (chain): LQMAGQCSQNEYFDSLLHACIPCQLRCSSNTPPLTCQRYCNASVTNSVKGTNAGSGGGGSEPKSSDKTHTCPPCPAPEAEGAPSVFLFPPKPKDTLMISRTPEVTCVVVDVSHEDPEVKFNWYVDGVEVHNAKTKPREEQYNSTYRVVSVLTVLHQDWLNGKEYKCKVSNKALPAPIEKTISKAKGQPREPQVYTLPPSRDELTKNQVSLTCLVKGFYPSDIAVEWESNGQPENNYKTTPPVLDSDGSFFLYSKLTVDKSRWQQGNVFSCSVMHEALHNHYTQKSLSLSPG
Chain of TACI 13-118-Fc (Fc fusion) (chain): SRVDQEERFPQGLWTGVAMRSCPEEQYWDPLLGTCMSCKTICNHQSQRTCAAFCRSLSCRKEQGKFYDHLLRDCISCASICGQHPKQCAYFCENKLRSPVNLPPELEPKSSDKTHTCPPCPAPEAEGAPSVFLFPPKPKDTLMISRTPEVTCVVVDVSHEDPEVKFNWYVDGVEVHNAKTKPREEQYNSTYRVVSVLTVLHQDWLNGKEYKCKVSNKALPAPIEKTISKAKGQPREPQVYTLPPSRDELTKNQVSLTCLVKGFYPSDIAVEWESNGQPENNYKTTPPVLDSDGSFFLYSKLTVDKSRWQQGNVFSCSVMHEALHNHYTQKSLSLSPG

| IC50 (nM) APRIL [1] | IC50 APRIL (Δ TACI 30-110-Fc) [1] | IC50 (nM) BAFF [2] | IC50 BAFF (Δ TACI 30-110-Fc) [2] | CD80 IC50 [5] | CD80 IC50 (Δ Parental CTLA-4) [5] | CD86 IC50 [6] | CD86 IC50 (Δ Parental CTLA-4) [6] | Molecule | other results |
| --- | --- | --- | --- | --- | --- | --- | --- | --- | --- |
| 3850 nM | 1 | 5770 nM | 1 | – | – | – | – | TACI 30-110-Fc (Fc fusion) | – |
| 9100 nM | 2.37 | 7700 nM | 1.33 | – | – | – | – | TACI 13-118-Fc (Fc fusion) | – |
| 183 nM | 0.05 | 823 nM | 0.14 | – | – | – | – | BCMA WT-Fc (Fc fusion) | IC50 (nM) APRIL [3]: 1.03 nM; IC50 APRIL (Δ Parental vTD) [3]: 1; IC50 (nM) BAFF [4]: 0.995 nM; IC50 BAFF (Δ Parental vTD) [4]: 1 |
| – | – | – | – | 33.6 nM | 1 ratio | 8.2 nM | 1 ratio | variant CTLA-4 ECD-Fc G29W/L98Q/Y105L (Fc fusion) KAMHVAQPAVVLASSRGIASFVCEYASPWKATEVRVTVLRQADSQVTEVCAATYMMGNELTFLDDSICTGTSSGNQVNLTIQGLRAMDTGLYICKVEQMYPPPYLLGIGNGTQIYVIDPEPCPDSDGSGGGGSEPKSSDKTHTCPPCPAPEAEGAPSVFLFPPKPKDTLMISRTPEVTCVVVDVSHEDPEVKFNWYVDGVEVHNAKTKPREEQYNSTYRVVSVLTVLHQDWLNGKEYKCKVSNKALPAPIEKTISKAKGQPREPQVYTLPPSRDELTKNQVSLTCLVKGFYPSDIAVEWESNGQPENNYKTTPPVLDSDGSFFLYSKLTVDKSRWQQGNVFSCSVMHEALHNHYTQKSLSLSPG | MFI [7]: 570 MFI |
| – | – | – | – | – | – | – | – | variant CTLA-4 ECD-Fc M56T/L98Q/Y105L (Fc fusion) KAMHVAQPAVVLASSRGIASFVCEYASPGKATEVRVTVLRQADSQVTEVCAATYMTGNELTFLDDSICTGTSSGNQVNLTIQGLRAMDTGLYICKVEQMYPPPYLLGIGNGTQIYVIDPEPCPDSDGSGGGGSEPKSSDKTHTCPPCPAPEAEGAPSVFLFPPKPKDTLMISRTPEVTCVVVDVSHEDPEVKFNWYVDGVEVHNAKTKPREEQYNSTYRVVSVLTVLHQDWLNGKEYKCKVSNKALPAPIEKTISKAKGQPREPQVYTLPPSRDELTKNQVSLTCLVKGFYPSDIAVEWESNGQPENNYKTTPPVLDSDGSFFLYSKLTVDKSRWQQGNVFSCSVMHEALHNHYTQKSLSLSPG | MFI [7]: 700 MFI |
| – | – | – | – | 56.9 nM | 1.7 ratio | 10.2 nM | 1.2 ratio | CTLA-4 186 GSG4S Fc (G4S)4 TACI 541 (Fc fusion) KAMHVAQPAVVLASSRGIASFVCEYASPWKATEVRVTVLRQADSQVTEVCAATYMMGNELTFLDDSICTGTSSGNQVNLTIQGLRAMDTGLYICKVEQMYPPPYLLGIGNGTQIYVIDPEPCPDSDGSGGGGSEPKSSDKTHTCPPCPAPEAEGAPSVFLFPPKPKDTLMISRTPEVTCVVVDVSHEDPEVKFNWYVDGVEVHNAKTKPREEQYNSTYRVVSVLTVLHQDWLNGKEYKCKVSNKALPAPIEKTISKAKGQPREPQVYTLPPSRDELTKNQVSLTCLVKGFYPSDIAVEWESNGQPENNYKTTPPVLDSDGSFFLYSKLTVDKSRWQQGNVFSCSVMHEALHNHYTQKSLSLSPGGGGGSGGGGSGGGGSGGGGSSLSCRKEQGEYYDHLLRDCISCASICGQHPKQCADFCENKLRS | IC50 (nM) APRIL [8]: 1.56 nM; IC50 (nM) BAFF [9]: 0.103 nM; IC50 (nM) APRIL [10]: 272 nM; IC50 APRIL (Δ TACI 30-110-Fc) [10]: 0.07 ratio; IC50 (nM) BAFF [11]: 1260 nM; IC50 BAFF (Δ TACI 30-110-Fc) [11]: 0.22 ratio |
| – | – | – | – | 82.6 nM | 2.5 ratio | 9 nM | 1.1 ratio | CTLA-4 186 GSG4S Fc (G4S)4 (TACI 542) (Fc fusion) KAMHVAQPAVVLASSRGIASFVCEYASPWKATEVRVTVLRQADSQVTEVCAATYMMGNELTFLDDSICTGTSSGNQVNLTIQGLRAMDTGLYICKVEQMYPPPYLLGIGNGTQIYVIDPEPCPDSDGSGGGGSEPKSSDKTHTCPPCPAPEAEGAPSVFLFPPKPKDTLMISRTPEVTCVVVDVSHEDPEVKFNWYVDGVEVHNAKTKPREEQYNSTYRVVSVLTVLHQDWLNGKEYKCKVSNKALPAPIEKTISKAKGQPREPQVYTLPPSRDELTKNQVSLTCLVKGFYPSDIAVEWESNGQPENNYKTTPPVLDSDGSFFLYSKLTVDKSRWQQGNVFSCSVMHEALHNHYTQKSLSLSPGGGGGSGGGGSGGGGSGGGGSSLSCRKEEGKFYDHLLQDCISCASICGQHPKQCAYFCENKLRS | IC50 (nM) APRIL [8]: 2.49 nM; IC50 (nM) BAFF [9]: 0.153 nM |
| – | – | – | – | – | – | – | – | Belimumab (antibody, V domains shown) VH: QVQLQQSGAEVKKPGSSVRVSCKASGGTFNNNAINWVRQAPGQGLEWMGGIIPMFGTAKYSQNFQGRVAITADESTGTASMELSSLRSEDTAVYYCARSRDLLLFPHHALSPWGRGTMVTVSS VL: SSELTQDPAVSVALGQTVRVTCQGDSLRSYYASWYQQKPGQAPVLVIYGKNNRPSGIPDRFSGSSSGNTASLTITGAQAEDEADYYCSSRDSSGNHWVFGGGTELTVLG | IC50 (nM) APRIL [10]: 215000 nM; IC50 APRIL (Δ TACI 30-110-Fc) [10]: 55.8 ratio; IC50 (nM) BAFF [11]: 2500 nM; IC50 BAFF (Δ TACI 30-110-Fc) [11]: 0.43 ratio |
| – | – | – | – | – | – | – | – | TACI WT Fc (Fc fusion, not shown: a dimerising Fc or GST) VAMRSCPEEQYWDPLLGTCMSCKTICNHQSQRTCAAFCRSLSCRKEQGKFYDHLLRDCISCASICGQHPKQCAYFCENKLRS | IC50 (nM) APRIL [3]: 9.17 nM; IC50 APRIL (Δ Parental vTD) [3]: 1; IC50 (nM) BAFF [4]: 2.58 nM; IC50 BAFF (Δ Parental vTD) [4]: 1 |
| – | – | – | – | 25.2 nM | 0.8 ratio | 8.1 nM | 1.3 ratio | CTLA-4 186-GSG4S-Fc-(G4S)4-BCMA 406 (Fc fusion) KAMHVAQPAVVLASSRGIASFVCEYASPWKATEVRVTVLRQADSQVTEVCAATYMMGNELTFLDDSICTGTSSGNQVNLTIQGLRAMDTGLYICKVEQMYPPPYLLGIGNGTQIYVIDPEPCPDSDGSGGGGSEPKSSDKTHTCPPCPAPEAEGAPSVFLFPPKPKDTLMISRTPEVTCVVVDVSHEDPEVKFNWYVDGVEVHNAKTKPREEQYNSTYRVVSVLTVLHQDWLNGKEYKCKVSNKALPAPIEKTISKAKGQPREPQVYTLPPSRDELTKNQVSLTCLVKGFYPSDIAVEWESNGQPENNYKTTPPVLDSDGSFFLYSKLTVDKSRWQQGNVFSCSVMHEALHNHYTQKSLSLSPGGGGGSGGGGSGGGGSGGGGSLQMAGQCSQNEYFDSLLLACIPCQLRCSSNTPPLTCQRYCNASVTNSVKGTNA | IC50 (nM) APRIL [8]: 0.997 nM; IC50 (nM) BAFF [9]: 0.49 nM; IC50 (nM) APRIL [10]: 269 nM; IC50 APRIL (Δ TACI 30-110-Fc) [10]: 0.07 ratio; IC50 (nM) BAFF [11]: 2630 nM; IC50 BAFF (Δ TACI 30-110-Fc) [11]: 0.46 ratio |
| 369 nM | 0.1 | 1330 nM | 0.23 | – | – | – | – | SLSCRKEQGKFYDHLLRDCISCASICGQHPKQCAYFCENKLRS (Fc fusion, not shown: a dimerising Fc or GST, not fully specified (C-terminus); cysteine pairing not given here; also: Fc fusion, linker and Fc not given here) | – |
| – | – | – | – | – | – | – | – | SLSCRKEQGKFYDHLLRDCISCASICGQHPKQCAYFCENKLRS (Fc fusion, not shown: a dimerising Fc or GST, cysteine pairing not given here; also: Fc fusion, linker and Fc not given here, Fc fusion; also called WT TACI-Fc containing only the CRD2 domain of TACI; TACI 68-110 Fc) | binding result [12]: binds; binding result [13]: binds |

From patent publication US20230241168A1 (ALPINE IMMUNE SCIENCES, published 2023)
